How the values were obtained:
[1] = system: CFP-TRIM14-YFP 25-residue substrate

Question: What does the source list for “Recombinant VEEV nsP2-thioredoxin Protease containing residues 457-792”?
Answer: Km [1]: 21 µM; Vmax [1]: 0.056 U/mg; cleavage of CFP-YFP substrate [1]: VEEV nsP2 cysteine protease; Km (CFP-V12-YFP): 12 µM; Vmax (CFP-V12-YFP): 0.059 U/mg; cleavage of CFP-YFP substrate (CFP-V12-YFP): VEEV nsP2 cysteine protease

Source: patent publication US20210389324
